From US20120322122, “COMPOSITIONS AND METHODS FOR IMPROVED PLANT FEEDSTOCK” (published 2012)
Substitutions are numbered along the chain they refer to.

T1: PvMYB4a (Panicum virgatum)
T1 chain: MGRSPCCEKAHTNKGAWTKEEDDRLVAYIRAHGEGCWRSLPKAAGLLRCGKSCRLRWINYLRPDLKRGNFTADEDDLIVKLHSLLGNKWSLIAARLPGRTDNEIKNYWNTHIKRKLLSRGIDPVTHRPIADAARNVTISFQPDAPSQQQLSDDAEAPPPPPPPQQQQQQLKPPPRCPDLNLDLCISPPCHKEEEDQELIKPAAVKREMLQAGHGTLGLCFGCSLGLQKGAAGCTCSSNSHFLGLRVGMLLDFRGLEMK

B1: AtGA20ox2 promoter AC-II (dsDNA)
DNA 1: CTTAACTCTTAACTGGTCGAACCAACCATGAATGATTTGGGCATAAT
DNA 2: ATTATGCCCAAATCATTCATGGTTGGTTCGACCAGTTAAGAGTTAAG
B2: AtGA20ox2 promoter AC-IV (dsDNA)
DNA 1: ATTATAAGAAAGATTAAAAAACCAAACAAATGTACACTAACATGACT
DNA 2: AGTCATGTTAGTGTACATTTGTTTGGTTTTTTAATCTTTCTTATAAT
B3: AC-III x3 EMSA probe (dsDNA)
DNA 1: CCAGTCCACCTAACTCTACCTAACTCTACCTAACGCTGTTC
DNA 2: GAACAGCGTTAGGTAGAGTTAGGTAGAGTTAGGTGGACTGG
B4: AC-IV x3 EMSA probe (dsDNA)
DNA 1: B3 DNA 1 with T11A, T21A, T31A
DNA 2: B3 DNA 2 with A11T, A21T, A31T
B5: AC-I x3 EMSA probe (dsDNA)
DNA 1: CGGTACCAGTCCACCTACCGCCACCTACCGCCACCTACCGCTGTTCTCGA
DNA 2: TCGAGAACAGCGGTAGGTGGCGGTAGGTGGCGGTAGGTGGACTGGTACCG
B6: AC-II x3 EMSA probe (dsDNA)
DNA 1: B5 DNA 1 with T16A, T26A, T36A
DNA 2: B5 DNA 2 with A15T, A25T, A35T

Biological target: T1, PvMYB4a
Assay: EMSA; 5 mM MgCl2, 50 mM KCl, pH 7.5, 4 C
Details: tags: N-terminal His (pDEST17), E. coli BL21 DE3; label: biotin
Procedure: The present and previous studies indicate that subfamily 4 MYB proteins directly bind the AC cis-elements in downstream monolignol biosynthesis gene promoters (Legay et al., 2007; Sonbol et al., 2009). […] Gel shift assays were performed to test for possible direct binding of PvMYB4 to different AtGA20-ox2 promoter regions in vitro. Analysis of the AtGA20-ox2 promoter 1500 bp upstream of the transcription start site identified an AC-II (−1200 bp) and an AC-IV (−150 bp) element. […] This is consistent with the direct binding of PvMYB4 to the synthetic AC-II elements (FIG. 4F). Binding of PvMYB4 to the AC elements in the GA20-ox promoter appears to inhibit expression of the gene.
PvMYB4a was cloned into the pDEST17 expression vector by the Gateway cloning method (Invitrogen). After sequencing, the plasmid was transformed into BL21 DE3 E. coli competent cells. IPTG was added to induce expression of PvMYB4. The recombinant protein was purified with the MagneHis™ Protein Purification System (Promega Corporation, Madison, Wis.) then concentrated with an Amicon Ultra-15 Centrifugal Filter (Millipore Corporation, Billerica, Mass.). About 700-1000 ng of purified PvMYB4 protein was used for EMSA in each reaction. […] The DNA was transferred onto Nylon membranes and signal detected with a LightShift® Chemiluminescent EMSA Kit (Thermo Fisher Scientific Inc. Rockford, Ill.) using standard protocols.

| Binder | binding result |
| --- | --- |
| B1 | binds |
| B2 | no binding |

Biological target: T1, PvMYB4a
Assay: EMSA; 5 mM MgCl2, 50 mM KCl, pH 7.5, 4 C
Details: tags: N-terminal His (pDEST17), E. coli BL21 DE3; label: biotin
Remark: another data set of the same source
Procedure: PvMYB4a was cloned into the pDEST17 expression vector by the Gateway cloning method (Invitrogen). After sequencing, the plasmid was transformed into BL21 DE3 E. coli competent cells. IPTG was added to induce expression of PvMYB4. The recombinant protein was purified with the MagneHis™ Protein Purification System (Promega Corporation, Madison, Wis.) then concentrated with an Amicon Ultra-15 Centrifugal Filter (Millipore Corporation, Billerica, Mass.). About 700-1000 ng of purified PvMYB4 protein was used for EMSA in each reaction. The probes were labeled by annealing biotin-labeled olignucleotides or PCR products, then purified with a gel extraction kit (QIAGEN). Binding conditions were 12 mM Tris-HCl (pH 7.5), 20 mM NaCl, 50 mM KCl, 5 mM MgCl₂, 1 mM DTT, 0.2 mM EDTA, 2.5% glycerol, 1 mM β-ME, 0.05% NP-40 and 2 fmol biotin-labeled probes. The samples were loaded and run in a 6% DNA retardant gel (Invitrogen) in the cold room after the reactions had been incubated at 4° C. for 30 minutes. The DNA was transferred onto Nylon membranes and signal detected with a LightShift® Chemiluminescent EMSA Kit (Thermo Fisher Scientific Inc. Rockford, Ill.) using standard protocols.

| Binder | binding result |
| --- | --- |
| B3 | binds |
| B4 | no binding |
| B5 | binds |
| B6 | binds |
